From the Immune Epitope Database (IEDB)

What was measured:
HLA-A*01:01 = assay: IEDB peptide-MHC binding, purified MHC/direct/fluorescence; filed as Kd, often an IC50 or EC50 that approximates it; ≥ and ≤ were set here for values at or beyond the usual limits of such assays
HLA-A*02:03 = assay: as above
HLA-A*02:11 [1] = assay: as above
HLA-A*02:12 [2] = assay: as above
HLA-A*02:16 = assay: as above
HLA-A*02:19 [3] = assay: as above
HLA-A*23:01 [4] = assay: as above
HLA-A*24:03 [5] = assay: as above; conditions: source organism: Choclo virus
HLA-A*68:02 = assay: as above
HLA-A*02:01 [6] = assay: IEDB peptide-MHC binding, purified MHC/competitive/fluorescence; filed as Kd, often an IC50 or EC50 that approximates it; ≥ and ≤ were set here for values at or beyond the usual limits of such assays
HLA-A*26:01 = assay: as above
HLA-A*69:01 [7] = assay: as above
HLA-B*18:01 [8] = assay: as above
HLA-B*27:03 = assay: as above
HLA-B*39:01 = assay: as above
HLA-B*46:01 [9] = assay: as above
HLA-B*51:01 = assay: as above
HLA-B*57:01 [10] = assay: as above
HLA-A*02:11 [11] = assay: as above
HLA-A*02:12 [12] = assay: as above; conditions: source organism: Salmonella enterica subsp. enterica serovar Typhimurium str. LT2
HLA-A*02:19 [13] = assay: as above; conditions: source organism: Salmonella enterica subsp. enterica serovar Typhimurium str. LT2
HLA-A*03:01 [14] = assay: as above; conditions: source organism: Salmonella enterica subsp. enterica serovar Typhimurium str. LT2
HLA-A*23:01 [15] = assay: as above; conditions: source organism: Salmonella enterica subsp. enterica serovar Typhimurium str. LT2
HLA-A*24:03 [16] = assay: as above
HLA-A*29:02 [17] = assay: as above; conditions: source organism: Salmonella enterica subsp. enterica serovar Typhimurium str. LT2
HLA-B*15:01 [18] = assay: as above; conditions: source organism: Salmonella enterica subsp. enterica serovar Typhimurium str. LT2
HLA-B*15:17 = assay: as above
HLA-A*02:01 [19] = assay: IEDB peptide-MHC binding, purified MHC/direct/fluorescence; filed as Kd, often an IC50 or EC50 that approximates it; ≥ and ≤ were set here for values at or beyond the usual limits of such assays; conditions: source organism: Yellow fever virus 17D
HLA-A*03:01 [20] = assay: as above
HLA-A*11:01 = assay: as above; conditions: source organism: Yellow fever virus 17D
HLA-A*31:01 = assay: as above; conditions: source organism: Yellow fever virus 17D
HLA-A*69:01 [21] = assay: as above; conditions: source organism: Yellow fever virus 17D
HLA-B*15:01 [22] = assay: as above; conditions: source organism: Yellow fever virus 17D
HLA-B*15:09 = assay: as above; conditions: source organism: Yellow fever virus
HLA-B*18:01 [23] = assay: as above; conditions: source organism: Yellow fever virus 17D
HLA-B*27:05 = assay: as above; conditions: source organism: Yellow fever virus 17D
HLA-B*40:01 = assay: as above; conditions: source organism: Yellow fever virus 17D
HLA-B*44:02 = assay: as above; conditions: source organism: Yellow fever virus 17D
HLA-B*46:01 [24] = assay: as above; conditions: source organism: Yellow fever virus 17D
HLA-B*48:01 = assay: as above; conditions: source organism: Yellow fever virus 17D
HLA-B*57:01 [25] = assay: as above; conditions: source organism: Yellow fever virus 17D
HLA-B*58:01 = assay: as above; conditions: source organism: Yellow fever virus 17D
HLA-A*29:02 [26] = assay: as above; conditions: source organism: Convict Creek 107 virus
[27] = source organism: Salmonella enterica subsp. enterica serovar Typhimurium str. LT2
[28] = source organism: Yellow fever virus 17D
[29] = source organism: Bradyrhizobium diazoefficiens
[30] = source organism: Convict Creek 107 virus
[31] = source organism: Orthohantavirus sinnombreense

Sequence: KACDLAMCY
- Kd (HLA-A*01:01; source organism: Pergamino virus): 3.28 µM
- Kd (HLA-A*02:03; source organism: Choclo virus): ≥ 20 µM
- Kd (HLA-A*02:11 [1]; source organism: Choclo virus): ≥ 20 µM
- Kd (HLA-A*02:12 [2]; source organism: Choclo virus): ≥ 20 µM
- Kd (HLA-A*02:16; source organism: Choclo virus): ≥ 20 µM
- Kd (HLA-A*02:19 [3]; source organism: Choclo virus): ≥ 20 µM
- Kd (HLA-A*23:01 [4]; source organism: Choclo virus): ≥ 20 µM
- Kd (HLA-A*24:03 [5]): ≥ 20 µM
- Kd (HLA-A*68:02; source organism: Choclo virus): ≥ 20 µM
- Kd (HLA-A*02:01 [6]; source organism: Choclo virus): ≥ 20 µM
- Kd (HLA-A*26:01; source organism: Choclo virus): ≥ 20 µM
- Kd (HLA-A*69:01 [7]; source organism: Choclo virus): ≥ 20 µM
- Kd (HLA-B*18:01 [8]; source organism: Choclo virus): ≥ 20 µM
- Kd (HLA-B*27:03; source organism: Choclo virus): ≥ 20 µM
- Kd (HLA-B*39:01; source organism: Choclo virus): ≥ 20 µM
- Kd (HLA-B*46:01 [9]; source organism: Choclo virus): ≥ 20 µM
- Kd (HLA-B*51:01; source organism: Choclo virus): ≥ 20 µM
- Kd (HLA-B*57:01 [10]; source organism: Choclo virus): ≥ 20 µM

Sequence: ILNSDDEQA
- Kd (HLA-A*02:11 [11]; [27]): 0.142 µM
- Kd (HLA-A*02:12 [12]): ≥ 20 µM
- Kd (HLA-A*02:19 [13]): 1.63 µM
- Kd (HLA-A*03:01 [14]): ≥ 20 µM
- Kd (HLA-A*23:01 [15]): ≥ 20 µM
- Kd (HLA-A*24:03 [16]; [27]): ≥ 20 µM
- Kd (HLA-A*26:01; [27]): ≥ 20 µM
- Kd (HLA-A*29:02 [17]): 0.644 µM
- Kd (HLA-A*69:01 [7]; [27]): ≥ 20 µM
- Kd (HLA-B*15:01 [18]): ≥ 20 µM
- Kd (HLA-B*15:17; [27]): ≥ 20 µM
- Kd (HLA-B*18:01 [8]; [27]): ≥ 20 µM
- Kd (HLA-B*27:03; [27]): ≥ 20 µM
- Kd (HLA-B*39:01; [27]): ≥ 20 µM
- Kd (HLA-B*46:01 [9]; [27]): ≥ 20 µM
- Kd (HLA-B*51:01; [27]): ≥ 20 µM
- Kd (HLA-B*57:01 [10]; [27]): ≥ 20 µM

Sequence: VRGGMVAPL
- Kd (HLA-A*01:01; [28]): ≥ 20 µM
- Kd (HLA-A*02:01 [19]): ≥ 20 µM
- Kd (HLA-A*03:01 [20]; [28]): ≥ 20 µM
- Kd (HLA-A*11:01): ≥ 20 µM
- Kd (HLA-A*31:01): ≥ 20 µM
- Kd (HLA-A*69:01 [21]): ≥ 20 µM
- Kd (HLA-B*15:01 [22]): ≥ 20 µM
- Kd (HLA-B*15:09): ≥ 20 µM
- Kd (HLA-B*18:01 [23]): ≥ 20 µM
- Kd (HLA-B*27:05): ≥ 20 µM
- Kd (HLA-B*40:01): ≥ 20 µM
- Kd (HLA-B*44:02): ≥ 20 µM
- Kd (HLA-B*46:01 [24]): ≥ 20 µM
- Kd (HLA-B*48:01): ≥ 20 µM
- Kd (HLA-B*57:01 [25]): ≥ 20 µM
- Kd (HLA-B*58:01): ≥ 20 µM

Sequence: VTPGPHAQI
- Kd (HLA-A*02:01 [6]; [29]): 1.05 µM
- Kd (HLA-A*02:11 [11]; [29]): 0.0704 µM

Sequence: LFPELECFF
- Kd (HLA-A*02:03; [30]): ≥ 20 µM
- Kd (HLA-A*02:11 [1]; [30]): ≥ 20 µM
- Kd (HLA-A*02:12 [2]; [30]): ≥ 20 µM
- Kd (HLA-A*02:16; [30]): ≥ 20 µM
- Kd (HLA-A*02:19 [3]; [30]): ≥ 20 µM
- Kd (HLA-A*03:01 [20]; [30]): ≥ 20 µM
- Kd (HLA-A*23:01 [4]; [30]): ≥ 20 µM
- Kd (HLA-A*29:02 [26]): ≥ 20 µM
- Kd (HLA-A*68:02; [30]): ≥ 20 µM
- Kd (HLA-A*02:01 [6]; [31]): ≥ 20 µM
- Kd (HLA-A*24:03 [16]; [31]): 0.0008 µM
- Kd (HLA-A*26:01; [31]): ≥ 20 µM
- Kd (HLA-A*69:01 [7]; [31]): ≥ 20 µM
- Kd (HLA-B*15:17; [31]): ≥ 20 µM
- Kd (HLA-B*18:01 [8]; [31]): ≥ 20 µM
- Kd (HLA-B*27:03; [31]): ≥ 20 µM
- Kd (HLA-B*39:01; [31]): ≥ 20 µM
- Kd (HLA-B*46:01 [9]; [31]): ≥ 20 µM
- Kd (HLA-B*51:01; [31]): ≥ 20 µM
- Kd (HLA-B*57:01 [10]; [31]): ≥ 20 µM
